Series [1] is described as follows: Pharmacokinetic analysis of trimeric IL1Ra proteins in male Lewis rats after i.v. injection (plasma ELISA). The series is classed as in vivo. The conditions noted are these: for AUC / AUC protein/AUC KINERET ® / Half life / Half life protein/Half life KINERET ® / relative increase in AUC compared to KINERET: rat, in vivo, iv, 100 mg/kg; for half life after i.v. injection: single i.v. dose 100 mg/kg. On the procedure: The pharmacokinetic profile of these three constructs polypeptides were analysed in Lewis rats after intravenous (i.v.) injections. The profiles obtained were compared to the pharmacokinetic profile of KINERET® in the same experiment. The pharmacokinetic study was conducted using four male Lewis rats per group, and the constructs that were used were FL IL-1Ra, I10 IL-1Ra, V17 IL-1Ra and KINERET®, Single i.v. doses of 100 mg/kg were given to the animals. The test compound was dissolved in vehicle (4.4 mM NaCitrate, pH 6.5, 93.8 mM NaCl, 0.33 mM EDTA, 0.7 g TWEEN®-80) and administered through the tail vein (vena sacralis media) or the hind paw vein (vena saphena).
Blood was then collected from four animals per time-point at baseline (zero hours) and 0.5, 1, 2, 4, 8, 12, 24, 48, 72 h post dosing. Blood samples of approximately 100 μl were collected from the tip of the tails in Microtainers™. Plasma was collected and transferred into polypropylene tubes. Plasma samples were then stored at <−70° C. until measurements were performed. Animals were then sacrificed by CO2 inhalation and the carcasses were discarded without pathological examination. The IL-1Ra compound levels and KINERET® levels in plasma were then determined by ELISA.
The average body weight of each rat was 250 grams. Assuming that the rat average blood volume was 16.5 mL a theoretical maximum initial concentration of the compounds of 1,500,000 ng/mL was calculated after i.v. injection. This starting level was used as starting value for the analysis. No observations of side effects or changes in animal well being were observed.
Following blood sampling at the above indicated time points, an ELISA assay was used to measure the injected protein in the blood samples. Based on these ELISA results, area under the curve (AUC) was used as a measure of drug exposure and the plasma half life were calculated using standard software.
A general note: An ELISA detects its analyte on a solid surface through an enzyme-linked reagent.

Series [2] deals with IL-1 induction of IL-8 in U937 cells. The series is described as follows: Inhibition of IL-1 induction of IL-8 in U937 cells. The series is classed as cell-based. The conditions noted are these: based on several in vitro efficacy assays as well as Biacore assays. On the procedure:
GG-TripV-IL-1ra (Trip V-IL1Ra), GG-TripK-IL-1ra (Trip K-IL1Ra), GG-TripT-IL-1ra (Trip T-IL1Ra) and CII-H6-GrB-GG-TripT-IL-1ra (Trip Q-IL1Ra) were further analysed for their ability to inhibit IL-1 induction of IL-8 in U937 cells.
Due to buffer effects in the assay, at the highest protein concentration used (100 μg/mL) IL-8 production increases instead of further decreasing. Based on several in vitro efficacy assays as well as Biacore assays, it was determined that TripT IL1Ra was the best compound based on blocking and binding efficacy as well as production yields.
Three of the trimeric IL1Ra polypeptides described in the previous examples were chosen for pharmacokinetic analysis. The differences in the constructs were in the N-terminus of the trimerization domain: full length (FL), first nine amino acids truncated (I10) and the first 16 amino acids truncated (V17). The 10 construct represents a naturally occurring deletion variant of the trimerization domain and lacks the O-glycosylation site at Thr 4. The V17 derivative represents a deletion of the first exon encoding the trimerization domain and lacks a characterized heparin binding site. This site is also partially removed in the I10 construct.
On the technique in general: Surface plasmon resonance follows binding to a sensor surface in real time, without labels.

Another series concerns STZ-induced diabetes. The series is described as follows: Streptozocin (STZ)-induced diabetes model. The series is classed as in vivo, C57BL/6J male mice. The conditions noted are these: for reduction of blood glucose levels: daily i.p. dosing at both 100 and 30 mg/kg, FIG. 12. On the procedure: STZ (Sigma Aldrich) was administered once daily for five successive days at 50 mg/kg i.p. to fasted C57BL/6J male mice. The mice gradually developed higher levels of blood glucose from Day 1 to Day 4. The levels rose from […] during the STZ induction period. Five days (Day 4) after the last STZ dosing, the mice were randomly distributed into 10 treatment groups each containing 10 mice in good condition. Treatment started on this day, before onset of diabetes and continued beyond the onset.
The study period was 28 days and the mice were weighed once weekly during the treatment period. Blood glucose levels were measured every other day during the study period in order to monitor development of diabetes. A droplet of whole blood was collected by tail vein bleeding and placed on an Ascensia ELITE® blood glucose test strip and analyzed with an Ascensia ELITE® blood glucose meter (Bayer). The values were recorded, and x-fold increase in any given group compared to levels at treatment initiation was calculated. Clinical symptoms were observed daily or as appropriate in groups where adverse symptoms occurred.

For series [3], the system named is type II collagen arthritis. The series is classed as in vivo, Female Lewis rats. The procedure: Female Lewis rats with 4-day established type II collagen arthritis were treated subcutaneously (SC), daily (QD) on arthritis days 1-3 with Vehicle (10 mM phosphate buffer pH 7.4), or equimolar amounts of IL-1ra administering either monomeric IL-1ra (100 mg/kg KINERET®), or trimerized IL1ra (120 mg/kg Met-I10-TripT-IL1ra, or 120 mg/kg GG-V17-TripT-IL1ra). In order to have only one set of controls, all rats in the QD groups were dosed with the respective vehicle (10 mM phosphate buffer pH 7.4, or sodium citrate buffer pH 6.5 for KINERET®) at the 2nd and 3rd dosings to keep manipulations constant. Animals were terminated on arthritis day 4. Efficacy evaluation was based on ankle caliper measurements, expressed as area under the curve (AUC), terminal hind paw weights and body weights (Bendele et al 2000, Arthritis+Rheumatism 43:2648-2659). All animals survived to study termination. […] No vocalization occurred with any other injections.
Animals (8/group for arthritis, 4/group for normal), housed 4/cage, were anesthetized with Isoflurane and received subcutaneous/intradermal (SC/ID) injections with 300 μl of Freund's Incomplete Adjuvant (Difco, Detroit, Mich.) containing 2 mg/ml bovine type II collagen (Elastin Products, Owensville, Mo.) at the base of the tail and 2 sites on the back on days 0 and 6. Dosing by subcutaneous route (QD at 24 hour intervals) was initiated on arthritis day 1 and continued through day 3.
Rats were weighed on days 0-4 of arthritis, and caliper measurements of ankles were taken every day beginning on day 0 of arthritis (study day 9). After final body weight measurement, animals were euthanized, and hind paws were transected at the level of the medial and lateral malleolus and weighed (paired).

For series [4] the following is noted: in vivo; cited from earlier work.
Setting [5] is: SC QD days 1-3, 100 mg/kg KINERET, 120 mg/kg trimerized IL1ra, vs vehicle treated disease controls.

The AUC is the area under the concentration-time curve, a measure of exposure. A lower AUC goes with low exposure. “FL IL1Ra: trimeric IL1Ra polypeptide with full length (FL) trimerization domain, TripT fusion to IL-1Ra (SEQ ID NO: 24)”: in series [1], the “AUC” value turned out to be 809.292 µg·h/mL, the “AUC protein/AUC KINERET ®” value is 1.89, the “Half life” value amounted to 20 min and the “Half life protein/Half life KINERET ®” value came out at 17. Moreover, in series [1], the “relative increase in AUC compared to KINERET” value was “two-fold”. Further, in series [2], the “blocking and binding efficacy” value is listed as “best compound”.
With “I10 IL1Ra: trimeric IL1Ra polypeptide, first nine amino acids of the trimerization domain truncated (I10), TripT fusion (SEQ ID NO: 28)”, in series [1], the “AUC” value came to 1637.866 µg·h/mL, the “AUC protein/AUC KINERET ®” value is on record as 3.82, the “Half life” value came out at 54 min and the “Half life protein/Half life KINERET ®” value is recorded as 45. Moreover, in the series on STZ-induced diabetes, the “reduction of blood glucose levels” value was “marked reduction”. Moreover, the “blood glucose efficacy relative to daily dosing of 100 mg/kg KINERET” value in the series with STZ-induced diabetes (twice weekly i.p. dosing of 100 mg/kg) is reported as “equally effective”.
In the case of “KINERET®: monomeric IL-1ra [reference compound]”, in series [1], the “AUC” value amounted to 428.414 µg·h/mL, the “AUC protein/AUC KINERET ®” value amounted to 1, the “Half life” value came to 1.2 min and the “Half life protein/Half life KINERET ®” value was found to be 1. In addition, the “half life after i.v. injection” value in series [1] is “about 1.2 minutes”. In addition, in the series with STZ-induced diabetes, the “reduction of blood glucose levels” value is “marked reduction”. Moreover, in series [3] (setting [5]), the “Change in body weight increased toward normal” value is on record as 54%, the “Reduction of ankle diameter AUC” value is 34% and the “Reduction of final paw weight” value came out at 61%. For the same substance, the “vocalization during the injection process (subcutaneous irritation)” value in series [3] (rat, in vivo, sc) is reported as “vocalized during the injection process”. Moreover, in series [4], the “half life in humans” value is 240 to 360 min.
As for “V17 IL1Ra: trimeric IL1Ra polypeptide, first 16 amino acids of the trimerization domain truncated (V17), TripT fusion (SEQ ID NO: 32)”, in series [1], the “AUC” value amounted to 2177.781 µg·h/mL, the “AUC protein/AUC KINERET ®” value is given as 5.08, the “Half life” value is 69 min and the “Half life protein/Half life KINERET ®” value is recorded as 58. In series [1], the “relative increase in AUC compared to KINERET” value was “five-fold” and the “half life after i.v. injection” value is given as “about 69 minutes”.

The values are drawn from patent publication US20100028995A1, “Tetranectin Trimerizing Polypeptides” (Anaphore, Inc., priority 2004, published 2010).
